Experimental data taken from patent US20220363757A1 (SYMPHOGEN A S, published 2022).
Positions count from the first letter of the chain named.

T1: human LAG-3 domain 1-2 Fc fusion, point mutation #47 T100A (human, UniProt P18627 23-266)
T1 construct: not shown: human IgG1 Fc, AA P101-K330
T1 sequence: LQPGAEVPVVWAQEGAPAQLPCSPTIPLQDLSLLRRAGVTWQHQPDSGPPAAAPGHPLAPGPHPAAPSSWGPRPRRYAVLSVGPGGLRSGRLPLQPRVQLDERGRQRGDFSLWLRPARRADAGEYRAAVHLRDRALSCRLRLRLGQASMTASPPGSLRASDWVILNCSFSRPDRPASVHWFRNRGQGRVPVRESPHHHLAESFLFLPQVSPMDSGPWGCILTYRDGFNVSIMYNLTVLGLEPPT

T2: human LAG-3 domain 1-2 Fc fusion, point mutation #58 P115A (human, UniProt P18627 23-266)
T2 construct: not shown: human IgG1 Fc, AA P101-K330
T2 sequence: T1 sequence with A78T, P93A

T3: human LAG-3 domain 1-2 Fc fusion, point mutation #75 R141A (human, UniProt P18627 23-266)
T3 construct: not shown: human IgG1 Fc, AA P101-K330
T3 sequence: T1 sequence with A78T, R119A

T4: human LAG-3 domain 1-2 Fc fusion, point mutation #11 L56A (human, UniProt P18627 23-266)
T4 construct: not shown: human IgG1 Fc, AA P101-K330
T4 sequence: T1 sequence with L34A, A78T

T5: human LAG-3 domain 1-2 Fc fusion, point mutation #13 R58A (human, UniProt P18627 23-266)
T5 construct: not shown: human IgG1 Fc, AA P101-K330
T5 sequence: T1 sequence with R36A, A78T

T6: human LAG-3 domain 1-2 Fc fusion, point mutation #31 P84A (human, UniProt P18627 23-266)
T6 construct: not shown: human IgG1 Fc, AA P101-K330
T6 sequence: T1 sequence with P62A, A78T

T7: human LAG-3 domain 1-2 Fc fusion, point mutation #34 A87S (human, UniProt P18627 23-266)
T7 construct: not shown: human IgG1 Fc, AA P101-K330
T7 sequence: T1 sequence with A65S, A78T

T8: human LAG-3 domain 1-2 Fc fusion, point mutation #38 S91A (human, UniProt P18627 23-266)
T8 construct: not shown: human IgG1 Fc, AA P101-K330
T8 sequence: T1 sequence with S69A, A78T

T9: human LAG-3 domain 1-2 Fc fusion, point mutation #39 W92A (human, UniProt P18627 23-266)
T9 construct: not shown: human IgG1 Fc, AA P101-K330
T9 sequence: T1 sequence with W70A, A78T

B1: Fab fragment of antibody 15532 (Fab, V domains shown, not shown: a dimerising Fc or GST)
VH: QVQLQQWGAGLLRPSETLSLTCAVYGESFSGYYWNWIRQPPGKGLEWIGEINHSGSTNYNPSLKSRVTISVDTSKTQFSLKLSSVTAADTAVYYCARGWDLLDWNDYWNEYWGQGTLVTVSS
VL: EIVLTQSPATLSLSPGERATLSCRASQSVSSYLAWYQQKPGQAPRLLIYDASNRATGIPARFSGSGSGTDFTLTISSLEPEDFAVYYCQQRSNWPLTFGGGTKVEIKR
notes: monomeric Fab made by GingisKHAN digestion of the IgG1
B2: Fab fragment of antibody 15431 (Fab, V domains shown, not shown: a dimerising Fc or GST)
VH: QVQLQQSGPGLVKPSQTLSLTCAISGDSVSSNSAAWNWIRQSPSRGLEWLGRTYYRSKWYNDYAVSVKSRITINPDTSKNQFSLQLNSVTPEDTAVYYCARDDDWNDFDYWGQGTLVTVSS
VL: B1 VL
notes: as for B1
B3: Fab fragment of antibody 15011 (Fab, V domains shown, not shown: a dimerising Fc or GST)
VH: EVQLLESGGGLVQPGGSLRLSCAASGFDFRSYAMMWVRQAPGKGLEWVGGINGEVGGSNTYYAPAVKGRATISRDNSKNTLYLQMNSLRAEDTAVYYCVKGAGACGICNDDIDAWGQGTLVTVSS
VL: SYELTQDPAVSVALGQTVRITCSGAGSYAGSYYYGWHQQKPGQAPVTVIYDNDKRPSNIPDRFSGSSSGNTASLTITGAQAEDEADYYCGSTNDNDDGGLFGSGTKVTVLG
notes: as for B1
B4: Fab fragment of antibody 15572 (Fab, V domains shown, not shown: a dimerising Fc or GST)
VH: QLQLQESGPGLVKPSETLSLTCTVSGDSISSSSYYWGWIRQPPGKGLEWIGSIFYSGNTYYNPSLKSRVTISVDTSKNQFSLKLSSVTAADTAVYYCAREDDFLTDYYGAFDIWGQGTMVTVSS
VL: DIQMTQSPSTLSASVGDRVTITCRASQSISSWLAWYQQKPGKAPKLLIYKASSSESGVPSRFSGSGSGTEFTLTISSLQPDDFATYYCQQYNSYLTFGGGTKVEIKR
notes: as for B1

Molecular target: T1, human LAG-3 domain 1-2 Fc fusion, point …
Experiment: SPR, Fab over captured mutant LAG-3-Fc;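 also: fc fusion variants captured on anti-human IgG Fc sensor, Fab injected with association then dissociation phases, KD obtained from Langmuir one-to-one fit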

Binder | KD mutant/KD wild type | binding result
B1 | 3.9 fold | 
B2 |  | no binding (tested: 300 nM)
B3 | 0.6 fold | 
B4 |  | no binding (tested: 300 nM)

Molecular target: T2, human LAG-3 domain 1-2 Fc fusion, point …
Experiment: SPR, Fab over captured mutant LAG-3-Fc;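 also: fc fusion variants captured on anti-human IgG Fc sensor, Fab injected with association then dissociation phases, KD obtained from Langmuir one-to-one fit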

Binder | KD mutant/KD wild type
B1 | 1 fold
B2 | 1.1 fold
B3 | 1.3 fold
B4 | 1.4 fold

Molecular target: T3, human LAG-3 domain 1-2 Fc fusion, point …
Experiment: SPR, Fab over captured mutant LAG-3-Fc;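 also: fc fusion variants captured on anti-human IgG Fc sensor, Fab injected with association then dissociation phases, KD obtained from Langmuir one-to-one fit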

Binder | KD mutant/KD wild type
B1 | 0.7 fold
B2 | 1 fold
B3 | 1.1 fold
B4 | 0.9 fold

Molecular target: T4, human LAG-3 domain 1-2 Fc fusion, point …
Experiment: SPR, Fab over captured mutant LAG-3-Fc;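 also: fc fusion variants captured on anti-human IgG Fc sensor, Fab injected with association then dissociation phases, KD obtained from Langmuir one-to-one fit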

Binder | KD mutant/KD wild type
B1 | 1.2 fold
B2 | 0.3 fold
B3 | 0.7 fold
B4 | 0.7 fold

Molecular target: T5, human LAG-3 domain 1-2 Fc fusion, point …
Experiment: SPR, Fab over captured mutant LAG-3-Fc

Binder | KD mutant/KD wild type
B1 | 0.8 fold
B2 | 1.2 fold
B3 | 1.7 fold
B4 | 0.8 fold

Molecular target: T6, human LAG-3 domain 1-2 Fc fusion, point …
Experiment: SPR, Fab over captured mutant LAG-3-Fc

Binder | KD mutant/KD wild type
B1 | 0.5 fold
B2 | 1.1 fold
B3 | 1 fold
B4 | 0.9 fold

Molecular target: T7, human LAG-3 domain 1-2 Fc fusion, point …
Experiment: SPR, Fab over captured mutant LAG-3-Fc

Binder | binding result | KD mutant/KD wild type
B1 | no binding (tested: 300 nM) | 
B2 |  | 1 fold
B3 |  | 1 fold
B4 |  | 0.9 fold

Molecular target: T8, human LAG-3 domain 1-2 Fc fusion, point …
Experiment: SPR, Fab over captured mutant LAG-3-Fc

Binder | KD mutant/KD wild type
B1 | 5.3 fold
B2 | 0.7 fold
B3 | 0.8 fold
B4 | 0.7 fold

Molecular target: T9, human LAG-3 domain 1-2 Fc fusion, point …
Experiment: SPR, Fab over captured mutant LAG-3-Fc

Binder | binding result | KD mutant/KD wild type
B1 | no binding (tested: 300 nM) | 
B2 |  | 3.6 fold
B3 |  | 1.1 fold
B4 |  | 1 fold
